Source: patent US20060142195

Target: T1, fibrin, P02671
T1 chain 1: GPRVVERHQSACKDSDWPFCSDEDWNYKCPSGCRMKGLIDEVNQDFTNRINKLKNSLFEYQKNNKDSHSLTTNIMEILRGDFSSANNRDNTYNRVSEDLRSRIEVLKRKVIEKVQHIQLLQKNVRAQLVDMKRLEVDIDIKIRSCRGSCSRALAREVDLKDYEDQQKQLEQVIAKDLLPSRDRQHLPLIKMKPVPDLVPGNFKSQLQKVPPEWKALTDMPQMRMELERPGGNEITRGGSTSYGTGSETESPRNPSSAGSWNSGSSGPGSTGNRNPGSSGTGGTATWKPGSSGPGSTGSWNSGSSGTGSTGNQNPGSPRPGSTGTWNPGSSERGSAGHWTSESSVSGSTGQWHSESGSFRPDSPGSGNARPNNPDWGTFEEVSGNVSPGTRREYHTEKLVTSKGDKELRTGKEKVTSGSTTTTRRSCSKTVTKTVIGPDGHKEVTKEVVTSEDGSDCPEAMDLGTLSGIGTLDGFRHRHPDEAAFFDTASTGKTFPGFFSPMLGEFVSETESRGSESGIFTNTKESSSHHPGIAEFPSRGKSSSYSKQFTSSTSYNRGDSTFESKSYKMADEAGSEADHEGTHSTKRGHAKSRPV
T1 chain 2: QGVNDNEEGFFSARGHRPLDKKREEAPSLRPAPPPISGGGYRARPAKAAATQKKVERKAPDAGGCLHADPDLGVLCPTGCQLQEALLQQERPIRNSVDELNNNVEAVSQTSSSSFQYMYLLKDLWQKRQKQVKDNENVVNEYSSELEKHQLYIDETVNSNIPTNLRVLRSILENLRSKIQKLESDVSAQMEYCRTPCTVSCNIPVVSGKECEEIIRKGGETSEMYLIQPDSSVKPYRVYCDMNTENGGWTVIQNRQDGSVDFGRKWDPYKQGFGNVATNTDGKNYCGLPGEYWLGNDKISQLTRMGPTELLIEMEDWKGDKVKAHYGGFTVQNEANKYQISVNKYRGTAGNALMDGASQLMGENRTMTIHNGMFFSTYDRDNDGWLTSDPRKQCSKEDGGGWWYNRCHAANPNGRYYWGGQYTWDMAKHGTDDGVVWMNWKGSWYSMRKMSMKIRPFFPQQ
T1 chain 3: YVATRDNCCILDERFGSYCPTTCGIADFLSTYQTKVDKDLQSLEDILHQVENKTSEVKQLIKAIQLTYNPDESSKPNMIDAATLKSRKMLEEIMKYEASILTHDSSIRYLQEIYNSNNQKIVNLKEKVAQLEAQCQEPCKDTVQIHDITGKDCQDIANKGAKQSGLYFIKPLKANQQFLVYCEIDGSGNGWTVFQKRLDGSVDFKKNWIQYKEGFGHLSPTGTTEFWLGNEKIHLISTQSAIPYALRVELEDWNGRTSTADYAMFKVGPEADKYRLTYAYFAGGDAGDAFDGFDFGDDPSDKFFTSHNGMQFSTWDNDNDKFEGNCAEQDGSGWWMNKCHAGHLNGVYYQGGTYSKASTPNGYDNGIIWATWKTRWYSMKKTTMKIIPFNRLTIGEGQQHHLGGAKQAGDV

B1: modified tissue plasminogen activator with an amino acid sequence according to SEQ ID No. 1 (protein)
chain: AYGVACKDEITQMTYRRQESWLRPEVRSKRVEHCQCDRGQARCHTVPVKSCSEPRCFNGGTCQQALYFSDFVCQCPEGFAGKCCEIDTRATCYEDQGISYRGTWSTAESGAECTNWNSSALAQKPYSGRRPDAIRLGLGNHNYCRNPDRDSKPWCYVFKAGKYSSEFCSTPACSSTCGLRQYSQPQFHSTGGLFADIASHPWQAAIFAKHRRSPGERFLCGGILISSCWILSAAHCFQERFPPHHLTVILGRTYRVVPGEEEQKFEVEKYIVHKEFDDDTYDNDIALLQLKSDSSRCAQESSVVRTVCLPPADLQLPDWTECELSGYGKHEALSPFYSERLKEAHVRLYPSSRCTSQHLLNRTVTDNMLCAGDTRSGGPQANLHDACQGDSGGPLVCLNDGRMTLVGIISWGLGCGQKDVPGVYTKVTNYLDWIRDNMRP
- fibrin specificity (semi quantitative tests): showed a increased fibrin specificity in comparison to the wild type t-PA
